B1: Relaxin-3 (Homo sapiens), Q8WXF3 (parent)
chain: MARYMLLLLLAVWVLTGELWPGAEARAAPYGVRLCGREFIRAVIFTCGGSRWRRSDILAHEAMGDTFPDADADEDSLAGELDEAMGSSEWLALTKSPQAFYRGRPSWQGTPGVLRGSRDVLAGLSSSCCKWGCSKSEISSLC

Variants of: B1
Details: with rl3r2_human RXFP4, Q8TDU9
rl3r2_human RXFP4, Q8TDU9, sequence (Q8TDU9 whole entry): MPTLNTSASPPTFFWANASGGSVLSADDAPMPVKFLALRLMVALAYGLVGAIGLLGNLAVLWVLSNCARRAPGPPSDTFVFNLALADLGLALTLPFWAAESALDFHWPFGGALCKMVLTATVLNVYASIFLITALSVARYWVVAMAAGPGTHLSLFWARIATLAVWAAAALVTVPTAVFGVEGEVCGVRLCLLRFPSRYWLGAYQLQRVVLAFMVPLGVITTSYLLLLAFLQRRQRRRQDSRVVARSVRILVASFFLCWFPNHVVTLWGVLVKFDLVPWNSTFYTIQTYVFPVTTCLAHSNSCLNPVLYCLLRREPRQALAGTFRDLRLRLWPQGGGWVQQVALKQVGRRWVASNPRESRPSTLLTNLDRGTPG

effect of a mutation on the interaction	Variant
decreasing interaction	R51E

Variants of: B1
Details: with rl3r2_human RXFP4, Q8TDU9
Remark: another data set of the same source

effect of a mutation on the interaction	Variant
increasing interaction	R51E

Variants of: B1
Details: with rl3r2_human RXFP4, Q8TDU9
Remark: another data set of the same source

effect of a mutation on the interaction	Variant
decreasing interaction	R37E

Variants of: B1
Details: with rl3r2_human RXFP4, Q8TDU9
Remark: another data set of the same source

effect of a mutation on the interaction	Variant
increasing interaction	R37E

Variants of: B1
Details: with rl3r2_human RXFP4, Q8TDU9
Remark: another data set of the same source

effect of a mutation on the interaction	Variant
decreasing interaction	R41E

Variants of: B1
Details: with rl3r2_human RXFP4, Q8TDU9
Remark: another data set of the same source

effect of a mutation on the interaction	Variant
increasing interaction	R41E

From IntAct's records for PubMed 24802387
